Test results as given in patent US9493781B2, “Synthetic brassica-derived chloroplast transit peptides” (DOW AGROSCIENCES LLC, priority 2012, dated 2016).

Assays:
Arabidopsis [1] = assay: dgt-28, dgt-32, dgt-33, dgt-3, dgt-7 transformed Arabidopsis (T1, T2, T3) response to postemergence glyphosate, % visual injury; assay type: in vivo, Arabidopsis thaliana; settings: 14 days after application
Outline: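 Transgenic T1, T2 and T3 Arabidopsis (low-copy events for T2/T3, hemizygous and homozygous in T2) sprayed postemergence with glyphosate at 105, 420, 1,680 or 3,360 g ae/ha. Visual injury scored 2 weeks after treatment as mean, SD and range. Non-transformed Columbia served as sensitive control.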

Arabidopsis [2] = assay: Heritability progeny test of T1 families (T2 plants) with glufosinate, Arabidopsis; assay type: in vivo, Arabidopsis thaliana; settings: progeny test of 100 T2 plants, glufosinate 200 g ae/ha
Outline: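 Self-pollinated T1 Arabidopsis events gave T2 seed; 100 random T2 siblings were sprayed with glufosinate at 200 g ae/ha and scored resistant/sensitive, segregation tested by Chi square against 3:1.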

[3] = Table 8, T1 Arabidopsis, 105 g ae/ha glyphosate
[4] = Table 8, T1 Arabidopsis, 420 g ae/ha glyphosate
[5] = Table 8, T1 Arabidopsis, 1680 g ae/ha glyphosate
[6] = Table 8, T1 Arabidopsis, 3360 g ae/ha glyphosate
[7] = Table 10, T1 Arabidopsis, 1,680 g ae/ha glyphosate
[8] = Table 12, T2 Arabidopsis, 1 copy, 420 g ae/ha glyphosate
[9] = Table 12, T2 Arabidopsis, 1 copy, 840 g ae/ha glyphosate
[10] = Table 12, T2 Arabidopsis, 1 copy, 1680 g ae/ha glyphosate
[11] = Table 12, T2 Arabidopsis, 1 copy, 3360 g ae/ha glyphosate

B1: pDAB105533: TraP12 v2 -- dgt-28 v5: binary construct TraP12 v2: dgt-28 v5 (SEQ ID NO:36) (nucleic acid)
DNA: ATGGCACAATCTAGCAGAATCTGCCACGGTGTGCAGAACCCATGTGTGATCATTTCAAATCTCTCAAAGTCCAATCAGAACAAATCACCTTTCTCCGTCTCCCTCAAGACACACCAGCATCCAAGGGCATACCCGATAAGCAGCTCATGGGGACTCAAGAAGAGCGGAATGACTCTGATTGGCTCTGAGCTTCGTCCTCTTAAGGTTATGTCCTCTGTTTCCGCAGCAAGAGGGATGCCAGCCTTGTCTTTACCTGGATCAAAGAGTATCACAGCTAGGGCACTCTTTCTTGCTGCTGCTGCTGATGGGGTTACTACTTTGGTGAGGCCATTGAGAAGTGACGACACAGAAGGATTCGCTGAGGGGTTAGTTCGTTTAGGCTATCGTGTAGGGAGGACACCCGATACTTGGCAAGTCGATGGCAGACCACAAGGACCAGCAGTGGCTGAGGCTGACGTCTACTGTAGAGACGGAGCAACCACCGCTAGATTCTTGCCAACCTTAGCAGCTGCTGGTCACGGAACATACAGATTTGATGCTTCACCACAGATGAGGAGACGTCCTCTTTTGCCCTTAAGCAGAGCCTTGAGGGATTTGGGTGTCGATCTTAGACACGAAGAAGCTGAAGGTCATCACCCTCTGACTGTCCGTGCTGCTGGGGTTGAAGGAGGAGAGGTTACTTTGGATGCTGGTCAGTCAAGTCAGTATCTCACTGCCTTGTTGCTCCTTGGTCCCCTTACAAGACAAGGACTGAGGATAAGGGTTACTGATTTGGTGTCAGCACCATACGTGGAGATTACGCTTGCAATGATGAGGGCTTTCGGAGTTGAAGTGGCAAGGGAGGGAGATGTGTTCGTTGTTCCACCTGGTGGATATCGTGCAACTACGTATGCTATAGAACCCGACGCAAGTACTGCTTCTTACTTCTTCGCAGCTGCTGCTTTGACTCCTGGAGCTGAAGTGACTGTACCTGGGTTAGGCACGGGAGCACTTCAAGGAGATTTGGGATTTGTAGATGTCTTAAGGAGAATGGGAGCCGAGGTGTCCGTAGGAGCTGATGCAACCACTGTTAGAGGAACTGGTGAATTGCGTGGCCTTACAGCCAACATGAGAGACATAAGTGATACGATGCCGACCCTCGCTGCAATAGCACCCTTTGCTAGTGCTCCAGTTAGAATCGAGGATGTTGCCAACACTCGTGTCAAAGAATGTGACAGACTTGAGGCTTGTGCAGAGAACCTTAGGAGGTTGGGAGTAAGGGTTGCAACGGGTCCGGACTGGATTGAGATACACCCTGGTCCAGCTACTGGTGCTCAAGTCACAAGCTATGGTGATCACAGAATTGTGATGTCATTTGCAGTGACTGGACTTCGTGTGCCTGGGATCAGCTTCGACGACCCTGGCTGTGTTCGTAAGACTTTTCCTGGGTTTCACGAGGCTTTCGCAGAATTGAGGCGTGGCATTGGGAGCTGA
modifications: In-frame fusion of dgt-28 v5 and TraP12 v2
- % Injury Ave (Arabidopsis [1]; [3]): 10.0%
- % Injury Range (%) (Arabidopsis [1]; [3]): 0-25%
- No. plants with 20-40% injury (Arabidopsis [1]; [3]): 1
- No. plants with <20% injury (Arabidopsis [1]; [3]): 4
- No. plants with >40% injury (Arabidopsis [1]; [3]): 0
- % Injury Ave (Arabidopsis [1]; [4]): 53.6%
- % Injury Range (%) (Arabidopsis [1]; [4]): 8-85%
- No. plants with 20-40% injury (Arabidopsis [1]; [4]): 1
- No. plants with <20% injury (Arabidopsis [1]; [4]): 1
- No. plants with >40% injury (Arabidopsis [1]; [4]): 3
- % Injury Ave (Arabidopsis [1]; [5]): 11.0%
- % Injury Range (%) (Arabidopsis [1]; [5]): 0-20%
- No. plants with 20-40% injury (Arabidopsis [1]; [5]): 1
- No. plants with <20% injury (Arabidopsis [1]; [5]): 4
- No. plants with >40% injury (Arabidopsis [1]; [5]): 0
- % Injury Ave (Arabidopsis [1]; [6]): 55.0%
- % Injury Range (%) (Arabidopsis [1]; [6]): 25-80%
- No. plants with 20-40% injury (Arabidopsis [1]; [6]): 2
- No. plants with <20% injury (Arabidopsis [1]; [6]): 0
- No. plants with >40% injury (Arabidopsis [1]; [6]): 3
- % Injury Ave (Arabidopsis [1]; [7]): 11.0%
- % Injury Range (%) (Arabidopsis [1]; [7]): 0-20%
- No. plants with 20-40% injury (Arabidopsis [1]; [7]): 1
- No. plants with <20% injury (Arabidopsis [1]; [7]): 4
- No. plants with >40% injury (Arabidopsis [1]; [7]): 0
- % Injury Ave (Arabidopsis [1]; [8]): 0.0%
- % Injury Range (%) (Arabidopsis [1]; [8]): 0%
- No. plants with 20-40% injury (Arabidopsis [1]; [8]): 0
- No. plants with <20% injury (Arabidopsis [1]; [8]): 4
- No. plants with >40% injury (Arabidopsis [1]; [8]): 0
- % Injury Ave (Arabidopsis [1]; [9]): 0.0%
- % Injury Range (%) (Arabidopsis [1]; [9]): 0%
- No. plants with 20-40% injury (Arabidopsis [1]; [9]): 0
- No. plants with <20% injury (Arabidopsis [1]; [9]): 4
- No. plants with >40% injury (Arabidopsis [1]; [9]): 0
- % Injury Ave (Arabidopsis [1]; [10]): 0.0%
- % Injury Range (%) (Arabidopsis [1]; [10]): 0%
- No. plants with 20-40% injury (Arabidopsis [1]; [10]): 0
- No. plants with <20% injury (Arabidopsis [1]; [10]): 4
- No. plants with >40% injury (Arabidopsis [1]; [10]): 0
- % Injury Ave (Arabidopsis [1]; [11]): 13.3%
- % Injury Range (%) (Arabidopsis [1]; [11]): 8-25%
- No. plants with 20-40% injury (Arabidopsis [1]; [11]): 1
- No. plants with <20% injury (Arabidopsis [1]; [11]): 3
- No. plants with >40% injury (Arabidopsis [1]; [11]): 0
- T1 Families Tested Segregating at 1 Locus (%) (Arabidopsis [2]): 50%
